# Measured values reported in patent publication US20190062438A1 (CSL, published 2019).
# T1: human CD131 (human, UniProt P32927 17-897)
# T1 sequence: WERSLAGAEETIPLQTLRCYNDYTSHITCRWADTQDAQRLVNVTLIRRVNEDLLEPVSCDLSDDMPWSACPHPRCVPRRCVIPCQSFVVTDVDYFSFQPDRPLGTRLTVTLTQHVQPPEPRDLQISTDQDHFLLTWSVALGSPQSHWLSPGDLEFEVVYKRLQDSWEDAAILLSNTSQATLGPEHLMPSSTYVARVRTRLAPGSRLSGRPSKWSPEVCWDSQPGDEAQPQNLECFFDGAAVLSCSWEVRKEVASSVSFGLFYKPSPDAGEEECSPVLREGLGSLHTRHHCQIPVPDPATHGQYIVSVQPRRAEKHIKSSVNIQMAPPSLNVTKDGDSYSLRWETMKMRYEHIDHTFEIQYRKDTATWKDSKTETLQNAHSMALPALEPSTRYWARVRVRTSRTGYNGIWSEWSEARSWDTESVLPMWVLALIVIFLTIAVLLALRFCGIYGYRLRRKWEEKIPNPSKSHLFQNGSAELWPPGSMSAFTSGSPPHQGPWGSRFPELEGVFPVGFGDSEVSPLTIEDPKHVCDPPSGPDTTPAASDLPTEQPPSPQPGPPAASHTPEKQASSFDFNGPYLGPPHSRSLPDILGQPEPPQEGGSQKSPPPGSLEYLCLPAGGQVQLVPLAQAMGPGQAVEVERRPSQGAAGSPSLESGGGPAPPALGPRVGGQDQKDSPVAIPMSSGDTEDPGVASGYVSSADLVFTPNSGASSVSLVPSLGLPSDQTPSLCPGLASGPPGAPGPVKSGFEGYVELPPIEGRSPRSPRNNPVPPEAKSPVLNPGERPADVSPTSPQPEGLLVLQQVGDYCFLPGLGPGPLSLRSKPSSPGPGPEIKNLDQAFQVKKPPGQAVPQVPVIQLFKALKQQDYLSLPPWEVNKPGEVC
# T2: soluble Homo sapiens CD131 comprising a C-terminal 6xHis tag (human, UniProt P32927 17-438)
# T2 construct: truncated after Ser438, C-terminal 6xHis; also called shCD131; shβc
# T2 sequence: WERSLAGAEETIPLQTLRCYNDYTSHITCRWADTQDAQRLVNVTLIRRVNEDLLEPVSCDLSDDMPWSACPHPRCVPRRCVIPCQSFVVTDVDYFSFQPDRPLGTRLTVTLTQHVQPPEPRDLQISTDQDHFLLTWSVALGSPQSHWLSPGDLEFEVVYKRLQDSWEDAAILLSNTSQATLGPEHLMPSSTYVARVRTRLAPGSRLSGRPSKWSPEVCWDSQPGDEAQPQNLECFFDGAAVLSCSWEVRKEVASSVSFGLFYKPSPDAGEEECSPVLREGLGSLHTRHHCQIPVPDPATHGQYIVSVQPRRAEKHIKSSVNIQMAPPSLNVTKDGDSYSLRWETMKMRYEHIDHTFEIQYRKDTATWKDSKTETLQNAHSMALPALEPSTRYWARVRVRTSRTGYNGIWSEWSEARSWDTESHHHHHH
# Target: T1, human CD131
# Assay: cell-based or functional assay
row,Binder,"IC50 GM-CSF, TF-1 proliferation"
1,"9A2-VR50 (antibody, V domains shown) VH: EVQLLESGGGLVQPGGSLRLSCAASGFTFSHYHMLWVRQAPGKGLEWVSSIRSSGGFTYYADSVKGRFTISRDNSKNTLYLQMNSLRAEDTAVYYCARFYSDHFAPWGQGTMVTVSS VL: DIQMTQSPSSVSASVGDRVTITCRASQGISSWLAWYQQKPGKAPKLLIYAASSLQSGVPSRFSGSGSGTDFTLTISSLQPEDFATYYCQQANSFPITFGQGTRLEIKR",46.5 nM
2,"9A2-VR3 (antibody, V domains shown) VH: EVQLLESGGGLVQPGGSLRLSCAASGFTFSHYHMLWVRQAPGKGLEWVSSIRSSGGFTYYADSVKGRFTISRDNSKNTLYLQMNSLRAEDTAVYYCARFYDSFFDIWGQGTMVTVSS VL: DIQMTQSPSSVSASVGDRVTITCRASQGLRPFVNWYQQKPGKAPKLLIYAASSLQSGVPSRFSGSGSGTDFTLTISSLQPEDFATYYCQQANSFPITFGQGTRLEIKR",101 nM
3,"9A2-VR4 (antibody, V domains shown) VH: EVQLLESGGGLVQPGGSLRLSCAASGFTFSHYHMLWVRQAPGKGLEWVSSIRSSGGFTYYADSVKGRFTISRDNSKNTLYLQMNSLRAEDTAVYYCARFYDSFFDIWGQGTMVTVSS VL: DIQMTQSPSSVSASVGDRVTITCRASQGIRPFVDWYQQKPGKAPKLLIYAASSLQSGVPSRFSGSGSGTDFTLTISSLQPEDFATYYCQQANSFPITFGQGTRLEIKR",122 nM
4,"9A2-VR49 (antibody, V domains shown) VH: EVQLLESGGGLVQPGGSLRLSCAASGFTFSHYHMLWVRQAPGKGLEWVSSIRSSGGFTYYADSVKGRFTISRDNSKNTLYLQMNSLRAEDTAVYYCARFYSDHFNPWGQGTMVTVSS VL: DIQMTQSPSSVSASVGDRVTITCRASQGISSWLAWYQQKPGKAPKLLIYAASSLQSGVPSRFSGSGSGTDFTLTISSLQPEDFATYYCQQANSFPITFGQGTRLEIKR",23.4 nM
5,"9A2-VR1 (antibody, V domains shown) VH: EVQLLESGGGLVQPGGSLRLSCAASGFTFSHYHMLWVRQAPGKGLEWVSSIRSSGGFTYYADSVKGRFTISRDNSKNTLYLQMNSLRAEDTAVYYCARFYDSFFDIWGQGTMVTVSS VL: DIQMTQSPSSVSASVGDRVTITCRASQGIRPFMAWYQQKPGKAPKLLIYAASSLQSGVPSRFSGSGSGTDFTLTISSLQPEDFATYYCQQANSFPITFGQGTRLEIKR",294 nM
6,"9A2-VR2 (antibody, V domains shown) VH: EVQLLESGGGLVQPGGSLRLSCAASGFTFSHYHMLWVRQAPGKGLEWVSSIRSSGGFTYYADSVKGRFTISRDNSKNTLYLQMNSLRAEDTAVYYCARFYDSFFDIWGQGTMVTVSS VL: DIQMTQSPSSVSASVGDRVTITCRASQGQRPFVSWYQQKPGKAPKLLIYAASSLQSGVPSRFSGSGSGTDFTLTISSLQPEDFATYYCQQANSFPITFGQGTRLEIKR",444 nM

# Target: T2, soluble Homo sapiens CD131 comprising a …
# Assay: SPR, Fab over captured shCD131
# Description: Binding kinetics were measured using SPR with a BIAcore™ A-100 instrument (GE Healthcare Life Sciences). An anti-C-terminal Hexa-His antibody (3H3) was immobilized on spots 1, 2, 4 and 5 of each flow cell of a CM-5 sensor chip (GE Healthcare Life Sciences) using amine-coupling chemistry (116). […] As shβc is a dimer, kinetics assays were performed with shβc captured on the sensor surface, and purified Fab injected as the analyte. Avidity effects were avoided by the use of Fab rather than whole IgG.
# shCD131 was captured on spots 1 and 5 of each flow cell for 2 minutes at a concentration of 0.4 μg/ml. […] For some analysis purified Fab was injected over each flow cell for 3 minutes and dissociation was monitored for a further 10 minutes. Regeneration of the surface was performed after each cycle with a 40 second injection of 25 mM glycine, pH 2.0. The analysis was performed with Fabs at several concentrations between 100 and 0.31 nM, with each concentration analyzed twice and in random order. The analysis was performed at a flow rate of 30 μl/min in HBS-EP buffer (10 mM Hepes, 150 mM NaCl, 3 mM EDTA, 0.005% Tween 20, pH 7.4) at 37° C. Responses from spots 2 and 4 of each flow cell, (in which shβc was not captured, but otherwise treated identically), were subtracted from those of spots 1 and 5 respectively to produce reference subtracted data. Reference subtracted responses from a blank injection comprising buffer alone were subtracted from the resultant sensorgrams to produce double referenced data suitable for kinetic analysis. Double-referenced sensorgrams were fitted using non-linear regression to a model describing 1:1 kinetics, including a term for mass transport limitation. The Rₘₐₓ value was fitted locally to account for slight deviations in the level of sCD131 captured, with association rate (kₐ), dissociation rate (kd) and equilibrium dissociation constant (KD) fitted globally.
Binder,Kd,koff,kon
"9A2-VR19 Fab (Fab, V domains shown, recombinant Fab) VH: EVQLLESGGGLVQPGGSLRLSCAASGFTFSHYHMLWVRQAPGKGLEWVSSIRSSGGFTYYADSVKGRFTISRDNSKNTLYLQMNSLRAEDTAVYYCARFYDSFFDIWGQGTMVTVSS VL: DIQMTQSPSSVSASVGDRVTITCRASQGISSWLAWYQQKPGKAPKLLIYAASSLQSGVPSRFSGSGSGTDFTLTISSLQPEDFATYYCGIPILGPITFGQGTRLEIKR",30 nM,,
"9A2-VR35 Fab (Fab, V domains shown, recombinant Fab) VH: EVQLLESGGGLVQPGGSLRLSCAASGFTFSHYHMLWVRQAPGKGLEWVSSINGFGRNTYYADSVKGRFTISRDNSKNTLYLQMNSLRAEDTAVYYCARFYDSFFDIWGQGTMVTVSS VL: DIQMTQSPSSVSASVGDRVTITCRASQGISSWLAWYQQKPGKAPKLLIYAASSLQSGVPSRFSGSGSGTDFTLTISSLQPEDFATYYCQQANSFPITFGQGTRLEIKR",0.34 nM,,
"9A2-VR32 Fab (Fab, V domains shown, recombinant Fab) VH: EVQLLESGGGLVQPGGSLRLSCAASGFTFSHYHMLWVRQAPGKGLEWVSSISGSVRSTYYADSVKGRFTISRDNSKNTLYLQMNSLRAEDTAVYYCARFYDSFFDIWGQGTMVTVSS VL: DIQMTQSPSSVSASVGDRVTITCRASQGISSWLAWYQQKPGKAPKLLIYAASSLQSGVPSRFSGSGSGTDFTLTISSLQPEDFATYYCQQANSFPITFGQGTRLEIKR",0.34 nM,,
"9A2-VR26 Fab (Fab, V domains shown, recombinant Fab) VH: EVQLLESGGGLVQPGGSLRLSCAASGFTFIHYRVHWVRQAPGKGLEWVSSIRSSGGFTYYADSVKGRFTISRDNSKNTLYLQMNSLRAEDTAVYYCARFYDSFFDIWGQGTMVTVSS VL: DIQMTQSPSSVSASVGDRVTITCRASQGISSWLAWYQQKPGKAPKLLIYAASSLQSGVPSRFSGSGSGTDFTLTISSLQPEDFATYYCQQANSFPITFGQGTRLEIKR",0.23 nM,0.00055 s⁻¹,2.4e+06 M⁻¹ s⁻¹
"9A2-VR36 Fab (Fab, V domains shown, recombinant Fab) VH: EVQLLESGGGLVQPGGSLRLSCAASGFTFSHYHMLWVRQAPGKGLEWVSSIGGDKRQTYYADSVKGRFTISRDNSKNTLYLQMNSLRAEDTAVYYCARFYDSFFDIWGQGTMVTVSS VL: DIQMTQSPSSVSASVGDRVTITCRASQGISSWLAWYQQKPGKAPKLLIYAASSLQSGVPSRFSGSGSGTDFTLTISSLQPEDFATYYCQQANSFPITFGQGTRLEIKR",0.3 nM,,
"9A2-VR20 Fab (Fab, V domains shown, recombinant Fab) VH: EVQLLESGGGLVQPGGSLRLSCAASGFTFNHYRVHWVRQAPGKGLEWVSSIRSSGGFTYYADSVKGRFTISRDNSKNTLYLQMNSLRAEDTAVYYCARFYDSFFDIWGQGTMVTVSS VL: DIQMTQSPSSVSASVGDRVTITCRASQGISSWLAWYQQKPGKAPKLLIYAASSLQSGVPSRFSGSGSGTDFTLTISSLQPEDFATYYCQQANSFPITFGQGTRLEIKR",0.58 nM,,
"9A2-VR21 Fab (Fab, V domains shown, recombinant Fab) VH: EVQLLESGGGLVQPGGSLRLSCAASGFTFMHYRVHWVRQAPGKGLEWVSSIRSSGGFTYYADSVKGRFTISRDNSKNTLYLQMNSLRAEDTAVYYCARFYDSFFDIWGQGTMVTVSS VL: DIQMTQSPSSVSASVGDRVTITCRASQGISSWLAWYQQKPGKAPKLLIYAASSLQSGVPSRFSGSGSGTDFTLTISSLQPEDFATYYCQQANSFPITFGQGTRLEIKR",0.39 nM,,
"9A2-VR27 Fab (Fab, V domains shown, recombinant Fab) VH: EVQLLESGGGLVQPGGSLRLSCAASGFTFTHYRVHWVRQAPGKGLEWVSSIRSSGGFTYYADSVKGRFTISRDNSKNTLYLQMNSLRAEDTAVYYCARFYDSFFDIWGQGTMVTVSS VL: DIQMTQSPSSVSASVGDRVTITCRASQGISSWLAWYQQKPGKAPKLLIYAASSLQSGVPSRFSGSGSGTDFTLTISSLQPEDFATYYCQQANSFPITFGQGTRLEIKR",0.47 nM,0.0011 s⁻¹,2.3e+06 M⁻¹ s⁻¹
